Assay results from doi:10.1101/2022.09.01.506260.

T1: human 14-3-3ε (human), P62258
T1 chain: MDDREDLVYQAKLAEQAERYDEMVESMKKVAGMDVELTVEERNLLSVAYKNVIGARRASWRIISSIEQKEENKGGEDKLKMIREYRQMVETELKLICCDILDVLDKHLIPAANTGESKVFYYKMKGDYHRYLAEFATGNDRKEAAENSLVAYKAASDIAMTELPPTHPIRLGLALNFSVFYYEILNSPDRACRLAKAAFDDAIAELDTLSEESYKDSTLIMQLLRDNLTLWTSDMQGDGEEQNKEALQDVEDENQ


Assays:
[1] = biological target: T1, human 14-3-3ε (human), P62258; test: crystal structure; conditions: remark: other sources report otherwise
[2] = biological target: full length CrkII, dimer (CrkII^FL dimer) (human), P46108; test: SEC; conditions: remark: other sources report otherwise

Binder | stoichiometry N [1] | percent of the total isolated protein that is dimer [2] [%] | stoichiometry N [2]
human 14-3-3ε, P62258-1 1-255 (natural protein) MDDREDLVYQAKLAEQAERYDEMVESMKKVAGMDVELTVEERNLLSVAYKNVIGARRASWRIISSIEQKEENKGGEDKLKMIREYRQMVETELKLICCDILDVLDKHLIPAANTGESKVFYYKMKGDYHRYLAEFATGNDRKEAAENSLVAYKAASDIAMTELPPTHPIRLGLALNFSVFYYEILNSPDRACRLAKAAFDDAIAELDTLSEESYKDSTLIMQLLRDNLTLWTSDMQGDGEEQNKEALQDVEDENQ | 2 | – | –
full length CrkII, dimer (CrkII^FL dimer), P46108-1 1-304 (natural protein) MAGNFDSEERSSWYWGRLSRQEAVALLQGQRHGVFLVRDSSTSPGDYVLSVSENSRVSHYIINSSGPRPPVPPSPAQPPPGVSPSRLRIGDQEFDSLPALLEFYKIHYLDTTTLIEPVSRSRQGSGVILRQEEAEYVRALFDFNGNDEEDLPFKKGDILRIRDKPEEQWWNAEDSEGKRGMIPVPYVEKYRPASASVSALIGGNQEGSHPQPLGGPEPGPYAQPSVNTPLPNLQNGPIYARVIQKRVPNAYDKTALALEVGELVKVTKINVSGQWEGECNGKRGHFPFTHVRLLDQQNPDEDFS | – | 10 | 2
